Data reported in article PMC10350030 (bioRxiv, 2023).

Target: biotin-Aβ42 (UniProt P05067 672-713, biotin (site not stated))
Test: single-molecule TIRF microscopy

Sequence of biotin-Aβ42 (P05067 672-713): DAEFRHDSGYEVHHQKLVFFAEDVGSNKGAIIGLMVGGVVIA

half-lifetime of transient binding: ~14.6 s
B1: Cy3-labeled ceruloplasmin (enzyme, human, UniProt P00450 20-1065, looked up)
chain: KEKHYYIGIIETTWDYASDHGEKKLISVDTEHSNIYLQNGPDRIGRLYKKALYLQYTDETFRTTIEKPVWLGFLGPIIKAETGDKVYVHLKNLASRPYTFHSHGITYYKEHEGAIYPDNTTDFQRADDKVYPGEQYTYMLLATEEQSPGEGDGNCVTRIYHSHIDAPKDIASGLIGPLIICKKDSLDKEKEKHIDREFVVMFSVVDENFSWYLEDNIKTYCSEPEKVDKDNEDFQESNRMYSVNGYTFGSLPGLSMCAEDRVKWYLFGMGNEVDVHAAFFHGQALTNKNYRIDTINLFPATLFDAYMVAQNPGEWMLSCQNLNHLKAGLQAFFQVQECNKSSSKDNIRGKHVRHYYIAAEEIIWNYAPSGIDIFTKENLTAPGSDSAVFFEQGTTRIGGSYKKLVYREYTDASFTNRKERGPEEEHLGILGPVIWAEVGDTIRVTFHNKGAYPLSIEPIGVRFNKNNEGTYYSPNYNPQSRSVPPSASHVAPTETFTYEWTVPKEVGPTNADPVCLAKMYYSAVEPTKDIFTGLIGPMKICKKGSLHANGRQKDVDKEFYLFPTVFDENESLLLEDNIRMFTTAPDQVDKEDEDFQESNKMHSMNGFMYGNQPGLTMCKGDSVVWYLFSAGNEADVHGIYFSGNTYLWRGERRDTANLFPQTSLTLHMWPDTEGTFNVECLTTDHYTGGMKQKYTVNQCRRQSEDSTFYLGERTYYIAAVEVEWDYSPQREWEKELHHLQEQNVSNAFLDKGEFYIGSKYKKVVYRQYTDSTFRVPVERKAEEEHLGILGPQLHADVGDKVKIIFKNMATRPYSIHAHGVQTESSTVTPTLPGETLTYVWKIPERSGAGTEDSACIPWAYYSTVDQVKDLYSGLIGPLIVCRRPYLKVFNPRRKLEFALLFLVFDENESWYLDDNIKTYSDHPEKVNKDDEEFIESNKMHAINGRMFGNLQGLTMHVGDEVNWYLMGMGNEIDLHTVHFHGHSFQYKHRGVYSSDVFDIFPGTYQTLEMFPRTPGIWLLHCHVTDHIHAGMETTYTVLQNEDTKSG
modifications: Cy3 label (site not stated)
